In the MegaScale stability set (Tsuboyama et al. 2023):

B1: 2M8U (parent)
chain: TKAQVIEAFKVFDRDGNGYVTVDYLRKVLNELGDMMPADEIEEMIYEADPQNSGYVQYETFVGMLFL

Variants of: B1
Experiment: folding stability dG (cDNA display proteolysis); higher = more stable
Settings: PBS, room temperature

Variant	folding stability dG
TKAQVIEAFKVFDRDTNGYVTVDYLRKVLNELGDMMPADEIEEMIYEADPQNSGYVQYETFVGMLFL	2.43 kcal/mol
TKAQVIEAFKVFDRDGNGYVTVDYLRKVLNELGDMMPADEIEEMIYEADQQNSGYVQYETFVGMLFL	3.25 kcal/mol
TKAQVIEAFKVFDRDGNGYVTVDYLRKVLNELGDMMPADEIEEMIYEADPQYSGYVQYETFVGMLFL	3.31 kcal/mol
TKAQVIEAFKVFIRDGNGYVTVDYLRKVLNELGDMMPADEIEEMIYEADPQNSGYVQYETFVGMLFL	2.4 kcal/mol
TKAQVIEAFKVFDRDGNGYVTVDYQRKVLNELGDMMPADEIEEMIYEADPQNSGYVQYETFVGMLFL	2.02 kcal/mol
TKAQVIEAFKVFDRDGNGYVTVDYERKVLNELGDMMPADEIEEMIYEADPQNSGYVQYETFVGMLFL	2.09 kcal/mol
TKAQVIEAFKVFDRDGNGYVTVDYHRKVLNELGDMMPADEIEEMIYEADPQNSGYVQYETFVGMLFL	1.16 kcal/mol
TKAQVIEAFKVFDRDGNGYVTVDYLRKVLNELGDMMPADEIEEMIYEADPQNSVYVQYETFVGMLFL	2.48 kcal/mol
TKAQVIEAFKVFDRDGNGYVTVDYLRKVLNELGDMMPADEIEEHIYEADPQNSGYVQYETFVGMLFL	3.52 kcal/mol
TKAQVIEAFKVFDRDGNKYVTVDYLRKVLNELGDMMPADEIEEMIYEADPQNSGYVQYETFVGMLFL	2.53 kcal/mol
TKAQVIEGFKVFDRDGNGYVTVDYLRKVLNELGDMMPADEIEEMIYEADPQNSGYVQYETFVGMLFL	2.64 kcal/mol
TKAQVIEAFKVFDRDGNGYVTVDYLRKVLNELGDMMPADEIEEMIYEADPQNSGYVQYETFVGMLFE	3.96 kcal/mol
TKAQVIEAFKVFDRDGNGYVTVDYLRKVLNELGDMMPADEIEEMIYEADPQNSGYVQYETFVGMLFK	3.57 kcal/mol
TKAQVIEAFKVFDRDGNGYVTVDYLRKVLNELGDMMPADEIEEMIYEADPQNSGYVQYETFVGMLFP	3.9 kcal/mol
TKAQVIEAFKVFDRDGNGYVTVDYLRKVLNELGDMMPADEIEEMIYEADPQNSGYVQYETFVGMLFC	3.61 kcal/mol
TKAQVIEAFKVFDREGNGYVTVDYLRKVLNELGDMMPADEIEEMIYEADPQNSGYVQYETFVGMLFL	3.55 kcal/mol
TKAQVIEAFQVFDRDGNGYVTVDYLRKVLNELGDMMPADEIEEMIYEADPQNSGYVQYETFVGMLFL	3.16 kcal/mol
TKAQVIEAFDVFDRDGNGYVTVDYLRKVLNELGDMMPADEIEEMIYEADPQNSGYVQYETFVGMLFL	2.26 kcal/mol
TKAQVIEAFWVFDRDGNGYVTVDYLRKVLNELGDMMPADEIEEMIYEADPQNSGYVQYETFVGMLFL	3.01 kcal/mol
TKAQVIEAFKVFDRDGNGYVTVDYLRKVLNELGDMMPADEIEEMIYEADPQNMGYVQYETFVGMLFL	3.23 kcal/mol

Variant	folding stability dG
TKAQVIEAFKVFDRDGNGYVTVDYLRKVLNELNDMMPADEIEEMIYEADPQNSGYVQYETFVGMLFL	3.18 kcal/mol
TKAQVIEAFKVFDRDGNGYVTVDYLRKVLNELGDMMPADEIEEMIYEADPQNSGYVQYETFVGMLAL	2.62 kcal/mol
TKAQVIEAFKVFDRDGNGYVTVDYLRKVLNELGDMMPADEIEEMIYEADPQNSGYVQYETFVGMLVL	2.84 kcal/mol
TKAQVIEAFKVFDRDGNGYVTVDYLRKVLNELGDMMPADEIEEMIYEADPQNSGYVQYETFVGMLGL	2.57 kcal/mol
TKAQVIEAFKVFDRDGNGYVTVDYLRKVLNELGDMMPADEIEEMIYEADPQNSGYVQYETFVGMLIL	2.84 kcal/mol
TKAQVIEAFKVFDRDGNGYVTVDYLRKVLNELGDMMPADEIEEMIYEADPQNSGYVQYETFVGMLNL	2.92 kcal/mol
TKAQVIEAFKVFDRDGNGYVTVDYLRKVLNELGDMMPADEIEEMIYEAEPQNSGYVQYETFVGMLFL	2.25 kcal/mol
TKAQVIEAFKVFDRDGNGYVTVDYLRKVLFELGDMMPADEIEEMIYEADPQNSGYVQYETFVGMLFL	3.65 kcal/mol
TKAQVIEAFKVFDRDGNGYVTVDYLRKVLNELGDMMPADEIEEMIYEADPQNSGYVQFETFVGMLFL	2.81 kcal/mol
TKAQVIEAFKVFDRDGNGYVTVDYLRKVLNELGDMMPADEIEEMIYEADPQNSGYVQQETFVGMLFL	1.77 kcal/mol
TKAQVIEAFKVFDRDGNGYVTVDYLRKVLNELGDMMPADEIEEMIYEADPQNSGYVQKETFVGMLFL	1.56 kcal/mol
TKAQVIEAFKVFDRDGNGYVTVDYLRKVLNELGDMMPADEIEEMIYEADPQNSGYVQYEEFVGMLFL	3.61 kcal/mol
TKAQVIEAFKVFDRDGNGYVTVDYLRKVLNELGDMMPADEIEEMIYEADPQNSGYVQYETFVQMLFL	3.47 kcal/mol
TKAQVIEAFKVFDRDGNGYVTVDYLRKVLNELGDMMPADEIEEMIYEADPQNSGYVQYETFVYMLFL	3.48 kcal/mol
TKAQVIEAFKVFDRDGNGYVTVDYLRKVLNELGDMMPADEIEEMIYEADPQNSGYVQYETFVNMLFL	3.97 kcal/mol
TKAQVIEAFKVFDRDGNGYVTVDYLRKVLNELGDMMPADEIEEMIYEADPQNSGYVQYETFVWMLFL	3.31 kcal/mol
TKAQVIEAFKVFDRDGNGFVTVDYLRKVLNELGDMMPADEIEEMIYEADPQNSGYVQYETFVGMLFL	3.66 kcal/mol
TKAQVIEAFKVFDRDGNGTVTVDYLRKVLNELGDMMPADEIEEMIYEADPQNSGYVQYETFVGMLFL	3.29 kcal/mol
TKAQVIEAFKVFDRDGNGYVTVDYLRKVLNELGDMMPADEIEEMIYEADPQNSGYCQYETFVGMLFL	2.17 kcal/mol
TKAQVIEAFKVFDRDGNGYVTVDYLRKVLNELGDMMPADEIEEMIYEADPQNSGYGQYETFVGMLFL	2.62 kcal/mol
